Experimental data published in patent publication US20160017341A1.

Target: B-lymphocyte antigen CD20 (UniProt P11836)
Test: direct binding of I-125 labeled antibody

UniProt P11836, sequence (P11836 whole entry): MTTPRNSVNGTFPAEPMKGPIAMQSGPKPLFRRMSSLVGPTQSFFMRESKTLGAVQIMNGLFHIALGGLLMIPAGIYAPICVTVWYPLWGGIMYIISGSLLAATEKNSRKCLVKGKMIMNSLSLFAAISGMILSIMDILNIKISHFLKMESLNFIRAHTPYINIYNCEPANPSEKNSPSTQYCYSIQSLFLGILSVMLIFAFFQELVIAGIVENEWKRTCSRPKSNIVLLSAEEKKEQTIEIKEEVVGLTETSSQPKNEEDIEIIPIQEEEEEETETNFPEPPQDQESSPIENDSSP

apparent affinity constant (Kap): 3.5 nM
Substance: anti-CD20 monoclonal antibody 2B8
